Columns and labels:
[1] = molecular target: recombinant purified FRα (ECL assay calibrator) (human) (UniProt P15328); test: ECL sandwich competition; competitors 9F3 capture / 24F12 detection; FRα standard STD01; MORAb-003 10 µg/mL
[2] = molecular target: recombinant purified FRα (ECL assay calibrator) (human) (UniProt P15328); test: ECL sandwich competition; competitors 9F3 capture / 24F12 detection; FRα standard STD02; MORAb-003 10 µg/mL
[3] = molecular target: recombinant purified FRα (ECL assay calibrator) (human) (UniProt P15328); test: ECL sandwich competition; competitors 9F3 capture / 24F12 detection; FRα standard STD03; MORAb-003 50 µg/mL
[4] = molecular target: recombinant purified FRα (ECL assay calibrator) (human) (UniProt P15328); test: ECL sandwich competition; competitors 9F3 capture / 24F12 detection; FRα standard STD06; MORAb-003 50 µg/mL
[5] = molecular target: recombinant purified FRα (ECL assay calibrator) (human) (UniProt P15328); test: ECL sandwich competition; competitors 9F3 capture / 24F12 detection; FRα standard STD07; MORAb-003 10 µg/mL
[6] = molecular target: endogenous folate receptor alpha in human serum and plasma samples (human) (UniProt P15328); test: ECL sandwich capture 24H8.D3 / detection 19D4.B7; serum incubated overnight with 10 µg/mL MORAb-003
endogenous folate receptor alpha in human serum and plasma samples (human), sequence (P15328 25-234 limits assumed, form in doubt): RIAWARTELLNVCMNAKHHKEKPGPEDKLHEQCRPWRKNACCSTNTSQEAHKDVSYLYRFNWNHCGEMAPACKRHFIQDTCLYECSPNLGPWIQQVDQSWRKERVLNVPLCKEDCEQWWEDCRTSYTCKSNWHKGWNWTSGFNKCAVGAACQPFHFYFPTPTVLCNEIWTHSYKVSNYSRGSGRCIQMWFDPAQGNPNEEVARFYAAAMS

[7] = molecular target: endogenous folate receptor alpha in human serum and plasma samples (human) (UniProt P15328); test: ECL sandwich capture 24H8.F3 / detection 19D4.B7; serum incubated overnight with 10 µg/mL MORAb-003
[8] = molecular target: recombinant purified FRα (ECL assay calibrator) (human) (UniProt P15328); test: ECL sandwich capture 19D2.G9 / detection 6A2.G7; calibrator incubated overnight with 10 µg/mL MORAb-003
[9] = molecular target: recombinant purified FRα (ECL assay calibrator) (human) (UniProt P15328); test: ECL sandwich capture 6A2.G7 / detection 24H8.F3; calibrator incubated overnight with 10 µg/mL MORAb-003
[10] = molecular target: recombinant purified FRα (ECL assay calibrator) (human) (UniProt P15328); test: ECL sandwich capture 6A2.G7 / detection 2F11.F8; calibrator incubated overnight with 10 µg/mL MORAb-003
[11] = molecular target: endogenous folate receptor alpha in human serum and plasma samples (human) (UniProt P15328); test: ECL sandwich capture 19D4.B7 / detection 1D2.G8.G10; serum incubated overnight with 10 µg/mL MORAb-003
[12] = molecular target: recombinant purified FRα (ECL assay calibrator) (human) (UniProt P15328); test: ECL sandwich capture 6A2.G7 / detection 19D4.B7; calibrator incubated overnight with 10 µg/mL MORAb-003
[13] = molecular target: recombinant purified FRα (ECL assay calibrator) (human) (UniProt P15328); test: ECL sandwich capture 19D4.B7 / detection 19D2.G9; calibrator incubated overnight with 10 µg/mL MORAb-003
[14] = molecular target: recombinant purified FRα (ECL assay calibrator) (human) (UniProt P15328); test: ECL sandwich capture 19D4.B7 / detection 24H8.F3; calibrator incubated overnight with 10 µg/mL MORAb-003
[15] = molecular target: recombinant purified FRα (ECL assay calibrator) (human) (UniProt P15328); test: ECL sandwich capture 19D4.B7 / detection 2F11.F8; calibrator incubated overnight with 10 µg/mL MORAb-003
[16] = molecular target: recombinant purified FRα (ECL assay calibrator) (human) (UniProt P15328); test: ECL sandwich capture 6A2.G7 / detection 1A8.G11.E7; calibrator incubated overnight with 10 µg/mL MORAb-003
[17] = molecular target: recombinant purified FRα (ECL assay calibrator) (human) (UniProt P15328); test: ECL sandwich capture 19D4.B7 / detection 1C6.E12.G8; calibrator incubated overnight with 10 µg/mL MORAb-003
[18] = molecular target: recombinant purified FRα (ECL assay calibrator) (human) (UniProt P15328); test: ECL sandwich capture 19D4.B7 / detection 1D2.G8.G10; calibrator incubated overnight with 10 µg/mL MORAb-003
[19] = molecular target: recombinant purified FRα (ECL assay calibrator) (human) (UniProt P15328); test: ECL sandwich capture 24H8.D3 / detection 30G6.G6.G4.E9; calibrator incubated overnight with 10 µg/mL MORAb-003
[20] = molecular target: recombinant purified FRα (ECL assay calibrator) (human) (UniProt P15328); test: ECL sandwich capture 30G6.G6.G4.E9 / detection 24H8.D3; calibrator incubated overnight with 10 µg/mL MORAb-003
[21] = molecular target: recombinant purified FRα (ECL assay calibrator) (human) (UniProt P15328); test: ECL sandwich capture 30G6.G6.G4.E9 / detection 26A9.C4; calibrator incubated overnight with 10 µg/mL MORAb-003
[22] = molecular target: recombinant purified FRα (ECL assay calibrator) (human) (UniProt P15328); test: ECL sandwich capture 1D2.G8.G10 / detection 30G6.G6.G4.E9; calibrator incubated overnight with 10 µg/mL MORAb-003
[23] = molecular target: recombinant purified FRα (ECL assay calibrator) (human) (UniProt P15328); test: ECL sandwich capture 30G6.G6.G4.E9 / detection 1D2.G8.G10; calibrator incubated overnight with 10 µg/mL MORAb-003
[24] = molecular target: recombinant purified FRα (ECL assay calibrator) (human) (UniProt P15328); test: ECL sandwich, positive control +CONT: capture 26B3.F2 (f1) / detection 19D4.B7; calibrator incubated overnight with 10 µg/mL MORAb-003

recombinant purified FRα (ECL assay calibrator) (human), sequence (P15328 25-234 limits assumed): as the sequence (P15328 25-234 limits assumed, form in doubt) above

% of signal without MORAb-003 (MORAb-003 interference) [1]: 68%
% of signal without MORAb-003 (MORAb-003 interference) [2]: 70%
% of signal without MORAb-003 (MORAb-003 interference) [3]: 58%
% of signal without MORAb-003 (MORAb-003 interference) [4]: 78%
% of signal without MORAb-003 (MORAb-003 interference) [5]: 87%
Drug suppression of serum [6]: -2.8%
Drug suppression of serum [7]: -13%
Drug Suppression of Cal Signal at 500 pg/mL [8]: -4%
Drug Suppression of Cal Signal at 500 pg/mL [9]: -5%
Drug Suppression of Cal Signal at 500 pg/mL [10]: -4%
Drug suppression of serum [11]: -2.12%
Drug Suppression of Cal Signal at 500 pg/mL [12]: -13%
Drug Suppression of Cal Signal at 500 pg/mL [13]: -19%
Drug Suppression of Cal Signal at 500 pg/mL [14]: -14%
Drug Suppression of Cal Signal at 500 pg/mL [15]: -4%
Drug Suppression of Cal Signal at 500 pg/mL [16]: 2%
Drug Suppression of Cal Signal at 500 pg/mL [17]: -18%
Drug Suppression of Cal Signal at 500 pg/mL [18]: 2%
Drug Suppression of Cal Signal at 500 pg/mL [19]: 0%
Drug Suppression of Cal Signal at 500 pg/mL [20]: -2%
Drug Suppression of Cal Signal at 500 pg/mL [21]: -11%
Drug Suppression of Cal Signal at 500 pg/mL [22]: -11%
Drug Suppression of Cal Signal at 500 pg/mL [23]: 8%
Drug Suppression of Cal Signal at 500 pg/mL [24]: -5%
B1: farletuzumab (MORAb-003) (antibody, part only; not given: Constant regions, V domains shown, not shown: another chain or arm of the molecule)
VH: EVQLVESGGGVVQPGRSLRLSCSASGFTFSGYGLSWVRQAPGKGLEWVAMISSGGSYTYYADSVKGRFAISRDNAKNTLFLQMDSLRPEDTGVYFCARHGDDPAWFAYWGQGTPVTVSS
VL: DIQLTQSPSSLSASVGDRVTITCSVSSSISSNNLHWYQQKPGKAPKPWIYGTSNLASGVPSRFSGSGSGTDYTFTISSLQPEDIATYYCQQWSSYPYMYTFGQGTKVEIK

— patent publication US20180148504A1
